Values quoted from earlier work as cited in PMC3321547 (Biochemistry, 2009).

Test system: DKH960
Settings: folded DKH960, ref [6]

B1: DKH960: folded kinesin heavy chain construct (protein, UniProt P17210 1-960, looked up, fragment)
chain: MSAEREIPAEDSIKVVCRFRPLNDSEEKAGSKFVVKFPNNVEENCISIAGKVYLFDKVFKPNASQEKVYNEAAKSIVTDVLAGYNGTIFAYGQTSSGKTHTMEGVIGDSVKQGIIPRIVNDIFNHIYAMEVNLEFHIKVSYYEIYMDKIRDLLDVSKVNLSVHEDKNRVPYVKGATERFVSSPEDVFEVIEEGKSNRHIAVTNMNEHSSRSHSVFLINVKQENLENQKKLSGKLYLVDLAGSEKVSKTGAEGTVLDEAKNINKSLSALGNVISALADGNKTHIPYRDSKLTRILQESLGGNARTTIVICCSPASFNESETKSTLDFGRRAKTVKNVVCVNEELTAEEWKRRYEKEKEKNARLKGKVEKLEIELARWRAGETVKAEEQINMEDLMEASTPNLEVEAAQTAAAEAALAAQRTALANMSASVAVNEQARLATECERLYQQLDDKDEEINQQSQYAEQLKEQVMEQEELIANARREYETLQSEMARIQQENESAKEEVKEVLQALEELAVNYDQKSQEIDNKNKDIDALNEELQQKQSVFNAASTELQQLKDMSSHQKKRITEMLTNLLRDLGEVGQAIAPGESSIDLKMSALAGTDASKVEEDFTMARLFISKMKTEAKNIAQRCSNMETQQADSNKKISEYEKDLGEYRLLISQHEARMKSLQESMREAENKKRTLEEQIDSLREECAKLKAAEHVSAVNAEEKQRAEELRSMFDSQMDELREAHTRQVSELRDEIAAKQHEMDEMKDVHQKLLLAHQQMTADYEKVRQEDAEKSSELQNIILTNERREQARKDLKGLEDTVAKELQTLHNLRKLFVQDLQQRIRKNVVNEESEEDGGSLAQKQKISFLENNLDQLTKVHKQLVRDNADLRCELPKLEKRLRCTMERVKALETALKEAKEGAMRDRKRYQYEVDRIKEAVRQKHLGRRGPQAQIAKPIRSGQGAIAIRGGGA
In the case of B1, the “maximum extent of inhibition of ADP release” value is listed as “over 50%”.
